Laboratory results from patent US20200317768A1 (published 2020).

T1: cynomolgus monkey FcγRIIa2 extracellular domain, His-tagged (cynomolgus monkey)
T1 construct: also called cyno FcγRIIa2; cynoFcgRIIa2; not shown: C-terminal His-tag
T1 chain: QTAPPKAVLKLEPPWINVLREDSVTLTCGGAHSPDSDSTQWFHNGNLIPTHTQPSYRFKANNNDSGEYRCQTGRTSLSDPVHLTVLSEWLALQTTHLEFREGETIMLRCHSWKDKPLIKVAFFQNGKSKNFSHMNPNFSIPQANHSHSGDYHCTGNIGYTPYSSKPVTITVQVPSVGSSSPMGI

T2: cynomolgus monkey FcγRIIa1 extracellular domain, His-tagged (cynomolgus monkey)
T2 construct: also called cyno FcγRIIa1; cynoFcgRIIa1; not shown: C-terminal His-tag
T2 chain: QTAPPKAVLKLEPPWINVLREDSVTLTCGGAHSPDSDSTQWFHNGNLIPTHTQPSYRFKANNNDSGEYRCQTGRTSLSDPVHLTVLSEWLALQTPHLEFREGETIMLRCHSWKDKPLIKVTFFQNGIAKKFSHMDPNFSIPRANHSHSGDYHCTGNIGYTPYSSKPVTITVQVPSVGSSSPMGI

T3: human FcγRIIaR extracellular domain, His-tagged (human, UniProt P12318 34-217)
T3 construct: also called human FcγRIIa (type R); FcgRIIaR; not shown: C-terminal His-tag
T3 chain: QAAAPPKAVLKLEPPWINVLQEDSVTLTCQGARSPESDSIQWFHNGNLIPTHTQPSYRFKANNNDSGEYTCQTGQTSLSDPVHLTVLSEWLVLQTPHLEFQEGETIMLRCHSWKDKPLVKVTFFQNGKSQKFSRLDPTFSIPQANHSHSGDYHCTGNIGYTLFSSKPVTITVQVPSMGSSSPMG

T4: cynomolgus monkey FcγRIIb extracellular domain, His-tagged (cynomolgus monkey)
T4 construct: also called cyno FcγRIIb; cynoFcγRIIb; not shown: C-terminal His-tag
T4 chain: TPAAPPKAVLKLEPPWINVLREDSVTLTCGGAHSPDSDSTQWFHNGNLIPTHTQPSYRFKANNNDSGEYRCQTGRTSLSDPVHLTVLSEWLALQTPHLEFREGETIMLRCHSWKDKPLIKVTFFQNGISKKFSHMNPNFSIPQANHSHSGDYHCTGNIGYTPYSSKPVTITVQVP

T5: cynomolgus monkey FcγRIIIaS extracellular domain, His-tagged (cynomolgus monkey, UniProt Q8SPW2 21-206 at identity 1.00))
T5 construct: also called cyno FcγRIIIaS; cynoFcγRIIIaS; not shown: C-terminal His-tag
T5 chain: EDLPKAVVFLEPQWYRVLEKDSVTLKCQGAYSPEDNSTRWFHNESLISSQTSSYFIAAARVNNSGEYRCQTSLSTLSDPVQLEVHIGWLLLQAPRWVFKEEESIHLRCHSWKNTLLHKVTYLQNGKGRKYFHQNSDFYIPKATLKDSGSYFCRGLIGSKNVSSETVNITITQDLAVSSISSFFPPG

T6: cynomolgus monkey FcγRIIa3 extracellular domain, His-tagged (cynomolgus monkey)
T6 construct: also called cyno FcγRIIa3; cynoFcgRIIa3; not shown: C-terminal His-tag
T6 chain: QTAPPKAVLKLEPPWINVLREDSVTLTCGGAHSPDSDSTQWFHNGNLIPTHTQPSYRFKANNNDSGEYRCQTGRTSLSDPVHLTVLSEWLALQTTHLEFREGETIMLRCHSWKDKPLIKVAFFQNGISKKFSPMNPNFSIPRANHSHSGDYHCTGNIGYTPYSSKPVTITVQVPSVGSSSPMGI

T7: human FcγRIIb extracellular domain, His-tagged (human, UniProt P31994 43-217)
T7 construct: also called FcgRIIb (human); not shown: C-terminal His-tag
T7 sequence: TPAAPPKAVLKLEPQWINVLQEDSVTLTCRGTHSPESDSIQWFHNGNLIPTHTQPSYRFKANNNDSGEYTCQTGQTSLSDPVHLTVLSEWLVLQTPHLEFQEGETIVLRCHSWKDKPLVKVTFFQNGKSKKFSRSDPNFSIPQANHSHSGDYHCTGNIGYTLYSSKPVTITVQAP

T8: human FcγRIIaH extracellular domain, His-tagged (human, UniProt P12318 34-217)
T8 construct: also called human FcγRIIa (type H); FcgRIIaH; not shown: C-terminal His-tag
T8 sequence: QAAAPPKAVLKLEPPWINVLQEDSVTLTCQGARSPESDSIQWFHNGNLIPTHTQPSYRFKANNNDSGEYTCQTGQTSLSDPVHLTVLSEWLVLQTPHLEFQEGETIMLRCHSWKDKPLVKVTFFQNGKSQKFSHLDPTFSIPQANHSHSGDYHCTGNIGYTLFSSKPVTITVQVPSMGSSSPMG


Legend:
[1] = biological target: T1, cynomolgus monkey FcγRIIa2 …; assay: SPR (BIACORE); KD of SG1 divided by KD of variant;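 further: relative to parent M103205H795-SG1 carrying the SG1 human heavy chain constant region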
[2] = biological target: T2, cynomolgus monkey FcγRIIa1 …; assay: SPR (BIACORE), captured antibody, FcgR as analyte
[3] = biological target: T3, human FcγRIIaR extracellular domain, …; assay: SPR (BIACORE), captured antibody, FcgR as analyte
[4] = biological target: T9, human FcγRIIIaV extracellular domain, His-tagged (human, UniProt P08637 17-208); assay: SPR (BIACORE), captured antibody, FcgR as analyte
T9 construct: also called FcgRIIIaV; not shown: C-terminal His-tag
T9 sequence (P08637 17-208 F176V): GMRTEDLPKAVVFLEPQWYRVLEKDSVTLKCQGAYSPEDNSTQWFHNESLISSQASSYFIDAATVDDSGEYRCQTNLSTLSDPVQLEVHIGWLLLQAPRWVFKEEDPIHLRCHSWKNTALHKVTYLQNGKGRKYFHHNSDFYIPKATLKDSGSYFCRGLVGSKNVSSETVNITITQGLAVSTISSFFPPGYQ

[5] = biological target: T4, cynomolgus monkey FcγRIIb extracellular …; assay: SPR (BIACORE), captured antibody, FcgR as analyte
[6] = biological target: T1, cynomolgus monkey FcγRIIa2 …; assay: SPR (BIACORE), captured antibody, FcgR as analyte
[7] = biological target: T5, cynomolgus monkey FcγRIIIaS …; assay: SPR (BIACORE), captured antibody, FcgR as analyte
[8] = biological target: T6, cynomolgus monkey FcγRIIa3 …; assay: SPR (BIACORE), captured antibody, FcgR as analyte
[9] = biological target: T7, human FcγRIIb extracellular domain, …; assay: SPR (BIACORE), captured antibody, FcgR as analyte
[10] = biological target: T8, human FcγRIIaH extracellular domain, …; assay: SPR (BIACORE), captured antibody, FcgR as analyte

| KD fold (SG1 = 1) [1] [fold] | Kd [2] [nM] | Kd [3] [nM] | Kd [4] [nM] | Kd [5] [nM] | Kd [6] [nM] | Kd [7] [nM] | Kd [8] [nM] | Kd [9] [nM] | Kd [10] [nM] | Binder |
| --- | --- | --- | --- | --- | --- | --- | --- | --- | --- | --- |
| 3.1 | 1000 | 210 | 5000 | 270 | 1000 | 1700 | 2300 | 1100 | 90 | M103205H795-MY475/M103202L889-SK1 (antibody, human IgG1, kappa, copies: 2 + 2) heavy: QVTLKESGPVLVKPTETLTLTCTVSGIDLSHDDISWVRQAPGKGLEWVGIISYAGSTYYASWAKGRLTISKDTSKNQVVLTMTNMDPVDTATYYCARGVPAYSHGGDLWGQGTLVTVSSASTKGPSVFPLAPSSKSTSGGTAALGCLVKDYFPEPVTVSWNSGALTSGVHTFPAVLQSSGLYSLSSVVTVPSSSLGTQTYICNVNHKPSNTKVDKKVEPKSCDKTHTCPPCPWPELLTGPSVFLFPPKPKDTLMISRTPEVTCVVVDVSDEDPEVKFNWYVDGVEVHNAKTKPREEQYNSTYRVVSVLTVLHQDWLNGKEYKCKVSNKALPKPIEKTISKAKGQPREPQVYTLPPSREEMTKNQVSLTCLVKGFYPSDIAVEWESNGQPENNYKTTPPVLDSDGSFFLYSKLTVDKSRWQQGNVFSCSVMHEALHNHYTQKSLSLSP light: DIVMTQSPATLSLSPGERATLSCTSSQSVYHANWLSWFQQKPGQPPKLLIYWASTLAYGVPSRFSGSGSGTDFTLTISSLQPEDAATYYCAGGYGGGRYAFGQGTKVEIKRTVAAPSVFIFPPSDEQLKSGTASVVCLLNNFYPREAKVQWKVDNALQSGNSQESVTEQDSKDSTYSLSSTLTLSKADYEKHKVYACEVTHQGLSSPVTKSFNRGEC |
| 3.9 | 1400 | 250 | 5500 | 590 | 1300 | 2000 | 2600 | 1200 | 140 | M103205H795-MY476/M103202L889-SK1 (antibody, human IgG1, kappa, copies: 2 + 2) heavy: QVTLKESGPVLVKPTETLTLTCTVSGIDLSHDDISWVRQAPGKGLEWVGIISYAGSTYYASWAKGRLTISKDTSKNQVVLTMTNMDPVDTATYYCARGVPAYSHGGDLWGQGTLVTVSSASTKGPSVFPLAPSSKSTSGGTAALGCLVKDYFPEPVTVSWNSGALTSGVHTFPAVLQSSGLYSLSSVVTVPSSSLGTQTYICNVNHKPSNTKVDKKVEPKSCDKTHTCPPCPYPELLTGPSVFLFPPKPKDTLMISRTPEVTCVVVDVSDEDPEVKFNWYVDGVEVHNAKTKPREEQYNSTYRVVSVLTVLHQDWLNGKEYKCKVSNKALPKPIEKTISKAKGQPREPQVYTLPPSREEMTKNQVSLTCLVKGFYPSDIAVEWESNGQPENNYKTTPPVLDSDGSFFLYSKLTVDKSRWQQGNVFSCSVMHEALHNHYTQKSLSLSP light: DIVMTQSPATLSLSPGERATLSCTSSQSVYHANWLSWFQQKPGQPPKLLIYWASTLAYGVPSRFSGSGSGTDFTLTISSLQPEDAATYYCAGGYGGGRYAFGQGTKVEIKRTVAAPSVFIFPPSDEQLKSGTASVVCLLNNFYPREAKVQWKVDNALQSGNSQESVTEQDSKDSTYSLSSTLTLSKADYEKHKVYACEVTHQGLSSPVTKSFNRGEC |
